Results taken from paper PMC5827684.

Tests used:
[1] = tested on: IscR-C92A (apo-locked) (Escherichia coli); experiment: EMSA
[2] = tested on: Fur (Mn2+-Fur) (Escherichia coli); experiment: EMSA

Substance	binding [1]	binding [2]
control DNA in 3' end of hmuR coding region	250 nM	
hmuR promoter (p1)		31.2 nM
hmuR-hmuS intergenic, larger fragment	62.5 nM	
